Reference: patent publication US6586946B2, “System and method for detecting and identifying molecular events in a test sample using a resonant test structure” (Signature BioScience, Inc., priority 2000, dated 2003)

B1: turkey lysozyme (protein, UniProt P00703 19-147, looked up)
Lysozyme C: KVYGRCELAAAMKRLGLDNYRGYSLGNWVCAAKFESNFNTHATNRNTDGSTDYGILQINSRWWCNDGRTPGSKNLCNIPCSALLSSDITASVNCAKKIASGGNGMNAWVAWRNRCKGTDVHAWIRGCRL
notes: test protein

Assay: Resonant frequency shift of coaxial resonator coupled to protein solution versus PBS buffer (S11 return loss)
Type: physicochemical
Settings: protein solution in PTFE tube; reference PBS pH 7.4; input test signal approximately 1 GHz, 100 KHz band
Method: Using the systems and methods of the present invention, several experiments were performed to detect and identify molecular events in a solution. […] The vector network analyzer used was model number HP 8714 manufactured by Agilent Technologies, Inc. (Palo Alto, Calif.) The computer is an HP Vectra computer (Hewlett Packard Company, Palo Alto, Calif.) executing a graphically user interface (LabView® platform) to control the operation of the network analyzer and to display the resulting data. The coaxial resonator 122 illustrated in FIG. 3A was used in the experiments to illuminate the reference and test samples. […] The PTFE tube 470 is used to transport the reference and test samples to the detection region of the resonant test assembly and measures 0.031″ I.D., 0.063″ O.D., wall 0.016″ in cross-section dimensions.
The proteins used for the experiment included bovine serum albumin (BSA), ribonuclease (rnase), urease, myoglobin, fibrinogen (type I-S, bovine), chicken lysozyme (egg white), and turkey lysozyme. Phosphate buffer solution (PBS, pH 7.4) was purchased from Sigma (St. Louis, Mo.) and used as the reference sample.
In the reference measurement, PBS buffer was introduced into the tube and transported to the detection region, and a S11 (return loss) measurement of the resonator was taken. In the illustrated example, the measurement was taken at 1 GHz over a 100 KHz band. From the measured S11 response, the resonant frequency fres and Q-factor of the resonator were computed and stored, as described above.
Next, each of the aforementioned protein solutions were introduced into the tube and transported to the detection region. The resonator's S11 response was measured (over the same frequency range as above) and the corresponding resonant frequency fres and Q-factor parameters derived therefrom. Subsequently, the difference in the resonant frequencies Δfres is computed. This quantity was subsequently plotted versus the resonator's measured Q-factor when electromagnetically coupled to the test sample. FIG. 6 illustrates this mapping.

Row | Molecule | change in resonant frequency of the resonator (relative to the PBS buffer)
1 | chicken lysozyme | ~6.5 KHz
2 | fibrinogen | approximately 1.75 KHz
3 | myoglobin | ~4 KHz
4 | urease | ~2 KHz
5 | B1 | ~6.75 KHz
